Results: patent US20240207421A1, “NERVE TARGETING PEPTIDES AND METHODS OF USE” (ALUME BIOSCIENCES, INC., priority 2020, published 2024)
Values belong to the molecule of their own block, whether it stands above or below them.

Experiments:
[1] = target: Human Nidogen-2 (human) (UniProt Q14112); experiment: phage display, NGS count
[2] = target: T1, Human Nidogen-2 (Homo sapiens, UniProt Q14112); experiment: Phage display library screening (Example 1, Power BI analysis), binding to Human Nidogen-2; details: R3 Nidogen-2, NextGen sequencing count of phage sequences distinct for this target
T1 construct: purchased Novus NBP2-10365
T1 sequence (Q14112 31-1375): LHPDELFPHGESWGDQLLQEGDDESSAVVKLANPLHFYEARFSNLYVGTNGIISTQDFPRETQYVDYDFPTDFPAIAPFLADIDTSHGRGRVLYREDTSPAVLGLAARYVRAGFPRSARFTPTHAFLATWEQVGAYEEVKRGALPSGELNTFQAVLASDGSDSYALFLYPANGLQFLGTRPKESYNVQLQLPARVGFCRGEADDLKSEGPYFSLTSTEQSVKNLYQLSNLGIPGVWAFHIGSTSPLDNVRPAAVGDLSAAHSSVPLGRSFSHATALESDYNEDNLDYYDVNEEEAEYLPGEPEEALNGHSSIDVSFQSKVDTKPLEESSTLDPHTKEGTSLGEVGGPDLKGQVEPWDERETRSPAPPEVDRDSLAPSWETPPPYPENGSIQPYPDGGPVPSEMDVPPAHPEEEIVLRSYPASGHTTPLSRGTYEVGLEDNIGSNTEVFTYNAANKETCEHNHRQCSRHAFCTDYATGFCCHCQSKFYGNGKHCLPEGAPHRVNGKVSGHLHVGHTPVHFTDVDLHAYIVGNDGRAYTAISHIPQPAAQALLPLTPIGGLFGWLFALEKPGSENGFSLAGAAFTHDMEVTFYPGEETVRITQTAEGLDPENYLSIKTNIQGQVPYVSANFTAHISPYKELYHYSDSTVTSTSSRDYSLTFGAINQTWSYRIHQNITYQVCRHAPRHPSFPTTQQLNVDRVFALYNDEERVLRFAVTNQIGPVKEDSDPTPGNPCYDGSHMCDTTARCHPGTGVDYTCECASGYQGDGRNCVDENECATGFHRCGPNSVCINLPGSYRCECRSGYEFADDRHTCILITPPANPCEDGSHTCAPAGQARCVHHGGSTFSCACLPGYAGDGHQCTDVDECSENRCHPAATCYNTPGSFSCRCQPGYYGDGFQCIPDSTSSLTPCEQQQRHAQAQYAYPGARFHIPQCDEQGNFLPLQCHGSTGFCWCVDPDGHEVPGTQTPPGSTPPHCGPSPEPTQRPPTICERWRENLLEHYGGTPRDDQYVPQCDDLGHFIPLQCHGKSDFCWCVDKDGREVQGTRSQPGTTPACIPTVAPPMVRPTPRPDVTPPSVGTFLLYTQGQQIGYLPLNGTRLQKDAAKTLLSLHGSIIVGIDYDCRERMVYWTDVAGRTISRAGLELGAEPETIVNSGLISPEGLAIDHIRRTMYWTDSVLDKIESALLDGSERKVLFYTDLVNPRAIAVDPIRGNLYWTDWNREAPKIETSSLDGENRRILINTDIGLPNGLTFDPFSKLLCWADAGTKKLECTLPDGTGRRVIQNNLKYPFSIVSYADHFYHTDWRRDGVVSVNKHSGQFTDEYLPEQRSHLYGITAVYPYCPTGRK
Excerpt: (§1) Phage display library screens were used to identify peptides that bind to target proteins that are expressed in human nerves and could therefore be useful for systemic in-vivo labeling of nerves during fluorescence assisted surgery. Specifically, m13 phage libraries expressing 7 or 12 random amino acid peptides, or a cyclic peptide CX7C, on the N-terminus of the minor coat protein pIII (New England Biolabs) were processed through multiple rounds of selection for binding to target proteins expressed in peripheral nerve (Table 1).
(§2) The library was processed through up to 4 binding and wash cycles. For selection, phage libraries were incubated for up to 24 hours at 4° C. in 96 well plates that had been coated with one of the target proteins. Plates were then washed with PBS and phage were eluted using 0.2M glycine pH 2.0. Phage supernatants where then neutralized with Tris pH 9.0 prior to plating on TG1 bacteria and LB agar plates. Colonies were counted to determine titer followed by DNA preparation of pools of phage and NextGen sequencing. After rounds of selection, phage were pooled and amplified for iterative selection. Phage that were bound at each round were sequenced. NextGen sequencing of pools after 2, 3 and 4 rounds of selection was used to isolate candidate sequences that were analyzed further to identify those that specifically bound each unique target protein.
(§3) DNA sequences were trimmed of all vector amino acids and imported as a peptide dataset into Power BI. Power BI was used to identify phage display sequences for specific columns (corresponding to each target protein) in order to identify sequences that were distinct for each protein target. The Power BI code evaluated each individual sequence for each protein target against the sequences present in other protein targets in a test for uniqueness. Using the distinct flag, the Power BI code generated a filtered peptide dataset that excluded any peptide sequence that occur in more than one column which identified a specific protein target. This method therefore identified candidate peptide sequences showing selective binding to an individual target protein. Unique sequences in each column were sorted by individual counts such that the most selected sequences appeared at the top of the column.

[3] = target: T2, Human Myelin Basic Protein (Homo sapiens, UniProt P02686); experiment: phage display, NGS count
[4] = target: T2, Human Myelin Basic Protein; experiment: phage display R3, NGS count
[5] = target: Human MPZ (human) (UniProt P25189); experiment: phage display, NGS count
[6] = target: Human MPZ (human) (UniProt P25189); experiment: phage display R3, NGS count
[7] = target: Human Nidogen-2 (human) (UniProt Q14112); experiment: phage display R3, NGS count
[8] = test system: Human Myelin PLP; experiment: Phage display library screening (Example 2, Python script analysis), binding to Human Myelin PLP; details: combined unique sequence count, Python/R script analysis
Summary of the method: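 Target protein-coated wells were panned with M13 phage libraries displaying 7- or 12-mer random or cyclic CX7C peptides on pIII, over up to 4 rounds (up to 24 h, 4° C), with glycine pH 2.0 elution. Pools from rounds 2–4 were NextGen-sequenced. Peptides specific to each target were ranked by unique sequence count.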

[9] = test system: Human Myelin PLP; experiment: Phage display library screening (Example 1, Power BI analysis), binding to Human Myelin PLP; details: R3 Myelin PLP, NextGen sequencing count of phage sequences distinct for this target
Excerpt: as §1, §2, §3

[10] = target: T2, Human Myelin Basic Protein; experiment: phage display R3, NGS count; remark: listed apart in the source
[11] = target: T2, Human Myelin Basic Protein; experiment: phage display, NGS count; remark: listed apart in the source

Human MPZ (human), sequence (P25189 30-153 limits assumed): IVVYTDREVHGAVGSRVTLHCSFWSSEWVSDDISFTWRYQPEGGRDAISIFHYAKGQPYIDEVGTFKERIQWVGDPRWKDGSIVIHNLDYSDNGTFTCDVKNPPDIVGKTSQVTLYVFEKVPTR
T2 sequence (P02686 135-304 limits assumed): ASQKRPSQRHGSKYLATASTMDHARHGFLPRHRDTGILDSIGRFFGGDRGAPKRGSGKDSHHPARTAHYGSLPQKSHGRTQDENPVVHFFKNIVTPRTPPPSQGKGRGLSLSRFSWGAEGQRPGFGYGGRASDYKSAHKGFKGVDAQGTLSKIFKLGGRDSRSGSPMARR

Count [1]: 13
Molecule: HSRLPTP (peptide)

Molecule: ACPENKSKHC (R3 Nidogen-2-binding peptide)
Count [2]: 13

Molecule: ACGEGEADVC (R3 Nidogen-2-binding peptide)
Count [2]: 26

Count [3]: 14
Count [4]: 13
Molecule: WTMKPNY (peptide)

Count [4]: 19
Molecule: NDTKTPS (peptide)

Count [5]: 58
Count [6]: 52
Molecule: TMASPAK (peptide)

Count [6]: 97
Molecule: SHLASRP (peptide)

Count [5]: 56
Count [6]: 56
Molecule: LSSPLSL (peptide)

Count [3]: 11
Count [4]: 11
Molecule: QNTGLKW (peptide)

Count [1]: 7
Molecule: TPWLPTI (peptide)

Count [4]: 10
Molecule: AGFPPNT (peptide)

Count [1]: 7
Molecule: ATYNMSQ (peptide)

Count [5]: 52
Count [6]: 51
Molecule: SAHAKHH (peptide)

Count [3]: 11
Count [4]: 11
Molecule: DPWVMLR (peptide)

Molecule: GYWRNAL (R3 Nidogen-2-binding peptide)
Count [2]: 11

Count [1]: 6
Molecule: QMDAKHM (peptide)

Count [4]: 10
Molecule: DGKNTSN (peptide)

Count [5]: 52
Count [6]: 50
Molecule: TESLFPH (peptide)

Count [4]: 11
Molecule: QIGVLPS (peptide)

Count [5]: 69
Count [6]: 68
Molecule: ETTRNYG (peptide)

Count [5]: 93
Count [6]: 92
Molecule: DPITRLK (peptide)

Count [3]: 12
Count [4]: 12
Molecule: SPDRTSL (peptide)

Count [1]: 7
Molecule: GLRTMEP (peptide)

Molecule: KAIHPMRG (R3 Nidogen-2-binding peptide)
Count [2]: 11

Count [6]: 49
Molecule: RVPHSRT (peptide)

Count [5]: 50
Count [6]: 50
Molecule: DRNSVFW (peptide)

Count [5]: 58
Count [6]: 57
Molecule: WPSISRP (peptide)

Count [7]: 11
Molecule: KAIHPMRG (peptide)

Count [4]: 12
Molecule: MQTQGRV (peptide)

Count [3]: 10
Count [4]: 10
Molecule: HRLPWHH (peptide)

Count [5]: 108
Count [6]: 107
Molecule: TSPWELR (peptide)

Count [1]: 7
Molecule: ARMAFSL (peptide)

Molecule: ACTVHKWDNC (R3 Nidogen-2-binding peptide)
Count [2]: 11

Count [1]: 7
Molecule: YNHTMMY (peptide)

Count [7]: 11
Molecule: GYWRNAL (peptide)

Count [5]: 82
Count [6]: 78
Molecule: IKPPYTH (peptide)

Count [1]: 6
Molecule: LHITPEV (peptide)

Count [1]: 6
Molecule: QTLRPKQ (peptide)

Count [5]: 51
Count [6]: 50
Molecule: GPLRMAT (peptide)

Count [5]: 56
Count [6]: 56
Molecule: VLTKPMP (peptide)

Count [1]: 6
Molecule: QLLESRT (peptide)

Molecule: ACEPRSLANC (R3 Nidogen-2-binding peptide)
Count [2]: 11

Count [1]: 6
Molecule: LSIRGLT (peptide)

Count [1]: 6
Molecule: EAMMHRN (peptide)

Molecule: LRFQIPP (R3 Myelin PLP-binding peptide)
Count [8]: 44
Count [9]: 44

Count [5]: 79
Count [6]: 67
Molecule: SHSPGNK (peptide)

Count [5]: 54
Count [6]: 51
Molecule: KMAGHTV (peptide)

Count [5]: 197
Count [6]: 196
Molecule: ALPLSAS (peptide)

Molecule: GLIRHYT (R3 Myelin PLP-binding peptide)
Count [8]: 66
Count [9]: 66

Count [4]: 18
Molecule: HPSTWHK (peptide)

Molecule: LTHHFAP (R3 Myelin PLP-binding peptide)
Count [8]: 40
Count [9]: 40

Count [1]: 8
Molecule: LVHPFHG (peptide)

Count [1]: 6
Molecule: WLAAGSQ (peptide)

Count [5]: 87
Count [6]: 86
Molecule: VLKNNPT (peptide)

Count [4]: 12
Molecule: LRPISHE (peptide)

Count [1]: 7
Molecule: ALYLPGR (peptide)

Count [6]: 48
Molecule: GLTPKLF (peptide)

Count [3]: 12
Count [4]: 12
Molecule: AWSTSSV (peptide)

Molecule: RFELPAP (R3 Myelin PLP-binding peptide)
Count [8]: 52
Count [9]: 52

Count [1]: 6
Molecule: NILSQVN (peptide)

Count [1]: 6
Molecule: TIASLLV (peptide)

Count [10]: 14
Molecule: SKSDAWR

Count [10]: 15
Molecule: AITSRNA

Count [10]: 16
Count [11]: 16
Molecule: LPMRILT

Count [10]: 16
Count [11]: 17
Molecule: EHGYYKV

Count [10]: 13
Molecule: ILLPSLN

Count [10]: 16
Molecule: SVLRMLN
